Changes are numbered by the printed parent chain. Numbers in names are those of the source.
B1: A107-550: BALF5 with internal deletion of residues 107-550 (protein)
chain: MASASLTMSGGLFYNPFLRPNKGLLKKPDKEYLRLIPKCFQTPGAAGVVDVRGPQPPLCFYQDSLTVVGGDEDGKGMWWRQRAQEGTARPEADTHGSPLDFHVYDILETVYTHILPMPSASDRDGYQGATVIQPLSGFYNSPVLVVDFASLYPSIIQAHNLCYSTMITPGEEHRLAGLRPGEDYESFRLTGGVYHFVKKHVHESFLASLLTSWLAKRKAIKKLLAACEDPRQRTILDKQQLAIKCTCNAVYGFTGVANGLFPCLSIAETVTLQGRTMLERAKAFVEALSPANLQALAPSPDAWAPLNPEGQLRVIYGDTDSLFIECRGFSESETLRFADALAAHTTRSLFVAPISLEAEKTFSCLMLITKKRYVGVLTDGKTLMKGVELVRKTACKFVQTRCRRVLDLVLADARVKEAASLLSHRPFQESFTQGLPVGFLPVIDILNQAYTDLREGRVPMGELCFSTELSRKLSAYKSTQMPHLAVYQKFVERNEELPQIHDRIQYVFVEPKGGVKGARKTEMAEDPAYAERHGVPVAVDHYFDKLLQGAANILQCLFDNNSGAALSVLQNFTARPPF
B2: ΔC903: BALF5 with deletion of the carboxyl-terminal 112 residues (protein)
chain: MASASLTMSGGLFYNPFLRPNKGLLKKPDKEYLRLIPKCFQTPGAAGVVDVRGPQPPLCFYQDSLTVVGGDEDGKGMWWRQRAQEGTARPEADTHGSPLDFHVYDILETVYTHEKCAVIPSDKQGYVVPCGIVIKLLGRRKADGASVCVNVFGQQAYFYASAPQGLDVEFAVLSALKASTFDRRTPCRVSVEKVTRRSIMGYGNHAGDYHKITLSHPNSVCHVATWLQDKHGCRIFEANVDATRRFVLDNDFVTFGWYSCRRAIPRLQHRDSYAELEYDCEVGDLSVRREDSSWPSYQALAFDIECLGEEGFPTATNEADLILQISCVLWSTGEEAGRYRRILLTLGTCEDIEGVEVYEFPSELDMLYAFFQLIRDLSVEIVTGYNVANFDWPYILDRARHIYSINPASLGKIRAGGVCEVRRPHDAGKGFLRANTKVRITGLIPIDMYAVCRDKLSLSDYKLDTVARHLLGAKKEDVHYKEIPRLFAAGPEGRRRLGMYCVQDSALVMDLLNHFVIHVEVAEIAKIAHIPCRRVLDDGQQIRVFSCLLAAAQKENFILPMPSASDRDGYQGATVIQPLSGFYNSPVLVVDFASLYPSIIQAHNLCYSTMITPGEEHRLAGLRPGEDYESFRLTGGVYHFVKKHVHESFLASLLTSWLAKRKAIKKLLAACEDPRQRTILDKQQLAIKCTCNAVYGFTGVANGLFPCLSIAETVTLQGRTMLERAKAFVEALSPANLQALAPSPDAWAPLNPEGQLRVIYGDTDSLFIECRGFSESETLRFADALAAHTTRSLFVAPISLEAEKTFSCLMLITKKRYVGVLTDGKTLMKGVELVRKTACKFVQTRCRRVLDLVLADARVKEAASLLSHRPFQESFTQGLPVGFLPVIDILNQAYTDLREGRVPMGELCFS
B3: C550: BALF5 with deletion of the carboxyl terminal 465 residues (protein)
chain: MASASLTMSGGLFYNPFLRPNKGLLKKPDKEYLRLIPKCFQTPGAAGVVDVRGPQPPLCFYQDSLTVVGGDEDGKGMWWRQRAQEGTARPEADTHGSPLDFHVYDILETVYTHEKCAVIPSDKQGYVVPCGIVIKLLGRRKADGASVCVNVFGQQAYFYASAPQGLDVEFAVLSALKASTFDRRTPCRVSVEKVTRRSIMGYGNHAGDYHKITLSHPNSVCHVATWLQDKHGCRIFEANVDATRRFVLDNDFVTFGWYSCRRAIPRLQHRDSYAELEYDCEVGDLSVRREDSSWPSYQALAFDIECLGEEGFPTATNEADLILQISCVLWSTGEEAGRYRRILLTLGTCEDIEGVEVYEFPSELDMLYAFFQLIRDLSVEIVTGYNVANFDWPYILDRARHIYSINPASLGKIRAGGVCEVRRPHDAGKGFLRANTKVRITGLIPIDMYAVCRDKLSLSDYKLDTVARHLLGAKKEDVHYKEIPRLFAAGPEGRRRLGMYCVQDSALVMDLLNHFVIHVEVAEIAKIAHIPCRRVLDDGQQIRVFSCLLAAAQKENF
B4: N160: BALF5 with deletion of the amino-terminal 160 residues (protein)
chain: VEFAVLSALKASTFDRRTPCRVSVEKVTRRSIMGYGNHAGDYHKITLSHPNSVCHVATWLQDKHGCRIFEANVDATRRFVLDNDFVTFGWYSCRRAIPRLQHRDSYAELEYDCEVGDLSVRREDSSWPSYQALAFDIECLGEEGFPTATNEADLILQISCVLWSTGEEAGRYRRILLTLGTCEDIEGVEVYEFPSELDMLYAFFQLIRDLSVEIVTGYNVANFDWPYILDRARHIYSINPASLGKIRAGGVCEVRRPHDAGKGFLRANTKVRITGLIPIDMYAVCRDKLSLSDYKLDTVARHLLGAKKEDVHYKEIPRLFAAGPEGRRRLGMYCVQDSALVMDLLNHFVIHVEVAEIAKIAHIPCRRVLDDGQQIRVFSCLLAAAQKENFILPMPSASDRDGYQGATVIQPLSGFYNSPVLVVDFASLYPSIIQAHNLCYSTMITPGEEHRLAGLRPGEDYESFRLTGGVYHFVKKHVHESFLASLLTSWLAKRKAIKKLLAACEDPRQRTILDKQQLAIKCTCNAVYGFTGVANGLFPCLSIAETVTLQGRTMLERAKAFVEALSPANLQALAPSPDAWAPLNPEGQLRVIYGDTDSLFIECRGFSESETLRFADALAAHTTRSLFVAPISLEAEKTFSCLMLITKKRYVGVLTDGKTLMKGVELVRKTACKFVQTRCRRVLDLVLADARVKEAASLLSHRPFQESFTQGLPVGFLPVIDILNQAYTDLREGRVPMGELCFSTELSRKLSAYKSTQMPHLAVYQKFVERNEELPQIHDRIQYVFVEPKGGVKGARKTEMAEDPAYAERHGVPVAVDHYFDKLLQGAANILQCLFDNNSGAALSVLQNFTARPPF
B5: WT (1-404): full-length 50-kDa BMRF1 processivity factor subunit of EBV DNA polymerase, SEQ ID NO. 9 (protein)
chain: METTQTLRFKTKALAVLSKCYDHAQTHLKGGVLQVNLLSVNYGGPRLAAVANAGTAGLISFEVSPDAVAEWQNHQSPEEAPAAVSFRNLAYGRTCVLGKELFGSAVEQASLQFYKRPQGGSRPEFVKLTMEYDDKVSKSHHTCALMPYMPPASDRLRNEQMIGQVLLMPKTASSLQKWARQQGSGGVKVTLNPDLYVTTYTSGEACLTLDYKPLSVGPYEAFTGPVAKAQDVGAVEAHVVCSVAADSLAAALSLCRIPAVSVPILRFYRSGIIAVVAGLLTSAGDLPLDLSVILFNHASEEAAASTASEPEDKSPRVQPLGTGLQQRPRHTVSPSPSPPPPPRTPTWESPARPETPSPAIPSHSSNTALERPLAVQLARKRTSSEARQKQKHPKKVKQAFNPLI
modifications: Epstein-Barr Virus
B6: C95E: BMRF1 comprising a C95E mutation, a monomeric form of BMRF1 (protein, UniProt P03191 1-404, looked up, variant C95E)
DNA polymerase processivity …: B5 chain with C95E

Legend:
[1] = DNA polymerase activity in vitro of BALF5 deletion polypeptides; type: biochemical; conditions: with or without BMRF1, high and low ionic strength
GST-BMRF1(1-303) = molecular target: T1, GST-BMRF1(1-303) (Epstein-Barr virus, UniProt P03191); assay: Binding of radiolabeled BALF5-deletion polypeptides to GST-BMRF1(1-303); conditions: 100 mM ammonium sulfate; [35S]-methionine labeled in vitro translated polypeptides
T1 construct: A GST fusion with BMRF1 residues 1-303 was constructed and expressed in E. coli BL21*DE3; made in house; host or cells: E. coli BL21*DE3
T1 sequence (P03191 1-303): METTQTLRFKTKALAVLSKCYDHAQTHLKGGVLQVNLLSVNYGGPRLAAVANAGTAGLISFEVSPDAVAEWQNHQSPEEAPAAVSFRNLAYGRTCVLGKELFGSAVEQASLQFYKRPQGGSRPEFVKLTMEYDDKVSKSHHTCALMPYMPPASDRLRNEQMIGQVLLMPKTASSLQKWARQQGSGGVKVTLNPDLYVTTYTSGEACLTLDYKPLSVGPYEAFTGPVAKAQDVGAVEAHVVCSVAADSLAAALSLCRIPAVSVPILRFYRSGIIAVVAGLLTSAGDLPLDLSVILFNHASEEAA
Protocol: To determine if the extreme carboxyl terminus of the EBV BALF5 subunit is necessary for functional interaction with BMRF1, a series of deletions of the BALF5 open reading frame was constructed in the pYES-X2 vector and [^35S]-methionine labeled polypeptides were expressed by in vitro transcription-translation as described (Kiehl, A. and D. I. Dorsky, J Virol, 1995, 69(3): p. 1669-77). These radiolabeled BALF5-deletion polypeptides were then assayed for binding to GST-BMRF1(1-303) in 100 mM ammonium sulfate. In vitro translated BALF5 bound to GST-BMRF1(1-303) but not to GST alone.

[2] = test system: activated calf thymus (CT) DNA; assay: DNA polymerase elongation activity of purified BALF5 on activated calf thymus DNA; type: biochemical; conditions: BMRF1 at concentrations required for stimulation at high-salt
Protocol: When assayed in the presence of BMRF1, its activity on CT DNA at 100 mM ammonium sulfate was greater than 100-fold increased over its activity alone, in the absence of salt.

[3] = monomeric form of BMRF1; cited from earlier work

Molecule	DNA polymerase activity in vitro [1]	binding to GST-BMRF1(1-303) (GST-BMRF1(1-303))	effect on the low-salt activity of BALF5 [2]	EBVpol processivity [3]
B1	catalytically inactive	did not prevent binding		
B2	wild-type DNA polymerase activity	binding was preserved		
B3	catalytically inactive	did not bind		
B4	catalytically inactive	did not prevent binding		
B5			did not appear to significantly decrease	
B6				can still efficiently catalyze EBVpol processivity
